Measurements from US10428140B2, “Anti-EphA4 antibody” (EISAI R&D MANAGEMENT CO., LTD., priority 2015, dated 2019).

Legend:
Assay in all cases: Selectivity ELISA of humanized antibodies for human Eph receptor
Assay type in all cases: binding
Conditions in all cases: coated protein 1 nM
human EphA1 = biological target: T1, human EphA1 (Homo sapiens, UniProt P21709)
T1 construct: a protein of the extracellular region of each human Eph receptor fused with the SEAP protein and the His tag; made in house; host or cells: Expi293F cells (culture supernatant)
T1 sequence (P21709 26-547 limits assumed): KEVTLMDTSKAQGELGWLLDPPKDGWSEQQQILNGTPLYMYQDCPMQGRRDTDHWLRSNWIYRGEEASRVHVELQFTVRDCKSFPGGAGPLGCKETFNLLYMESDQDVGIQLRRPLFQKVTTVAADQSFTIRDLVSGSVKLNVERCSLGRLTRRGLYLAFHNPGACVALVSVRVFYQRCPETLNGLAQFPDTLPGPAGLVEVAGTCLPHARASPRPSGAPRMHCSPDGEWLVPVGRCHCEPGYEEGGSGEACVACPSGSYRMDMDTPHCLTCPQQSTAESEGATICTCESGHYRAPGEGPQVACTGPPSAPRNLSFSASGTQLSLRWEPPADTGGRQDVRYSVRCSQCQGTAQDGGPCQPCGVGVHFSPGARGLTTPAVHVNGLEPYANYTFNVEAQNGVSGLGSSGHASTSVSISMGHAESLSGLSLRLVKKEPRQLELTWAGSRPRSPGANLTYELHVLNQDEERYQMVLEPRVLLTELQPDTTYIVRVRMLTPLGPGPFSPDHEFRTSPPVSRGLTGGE
How it was run: (§1)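 Extracellular domains of human Eph receptors fused to SEAP-His were expressed in Expi293F cells for 5 days and captured from supernatant (1 nM final) on anti-His-coated plates. Humanized anti-EphA4 antibodies were incubated 1 h at room temperature, then HRP anti-IgG secondary, TMB substrate, and absorbance at 450 nm.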

human EphB4 = biological target: T2, human EphB4 (Homo sapiens, UniProt P54760)
T2 construct: a protein of the extracellular region of each human Eph receptor fused with the SEAP protein and the His tag; made in house; host or cells: Expi293F cells
T2 sequence (P54760 16-539 limits assumed): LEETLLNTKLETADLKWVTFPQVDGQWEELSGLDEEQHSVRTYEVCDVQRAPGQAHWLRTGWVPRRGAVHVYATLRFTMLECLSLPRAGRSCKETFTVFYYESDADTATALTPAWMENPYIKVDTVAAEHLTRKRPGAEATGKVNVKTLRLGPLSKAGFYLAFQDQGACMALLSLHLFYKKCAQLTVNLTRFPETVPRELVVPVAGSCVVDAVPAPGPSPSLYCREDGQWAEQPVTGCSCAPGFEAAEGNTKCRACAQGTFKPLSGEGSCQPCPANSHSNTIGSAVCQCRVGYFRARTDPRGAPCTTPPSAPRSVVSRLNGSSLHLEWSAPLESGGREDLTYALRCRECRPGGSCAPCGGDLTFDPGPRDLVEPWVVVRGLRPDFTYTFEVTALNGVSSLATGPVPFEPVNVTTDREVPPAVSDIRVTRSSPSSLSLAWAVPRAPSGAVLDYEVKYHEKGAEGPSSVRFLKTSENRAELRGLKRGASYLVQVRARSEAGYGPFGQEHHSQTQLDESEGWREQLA
How it was run: as §1

human EphB6 = biological target: T3, human EphB6 (Homo sapiens, UniProt O15197)
T3 construct: a protein of the extracellular region of each human Eph receptor fused with the SEAP protein and the His tag; made in house; host or cells: Expi293F cells
T3 sequence (O15197 32-594 limits assumed): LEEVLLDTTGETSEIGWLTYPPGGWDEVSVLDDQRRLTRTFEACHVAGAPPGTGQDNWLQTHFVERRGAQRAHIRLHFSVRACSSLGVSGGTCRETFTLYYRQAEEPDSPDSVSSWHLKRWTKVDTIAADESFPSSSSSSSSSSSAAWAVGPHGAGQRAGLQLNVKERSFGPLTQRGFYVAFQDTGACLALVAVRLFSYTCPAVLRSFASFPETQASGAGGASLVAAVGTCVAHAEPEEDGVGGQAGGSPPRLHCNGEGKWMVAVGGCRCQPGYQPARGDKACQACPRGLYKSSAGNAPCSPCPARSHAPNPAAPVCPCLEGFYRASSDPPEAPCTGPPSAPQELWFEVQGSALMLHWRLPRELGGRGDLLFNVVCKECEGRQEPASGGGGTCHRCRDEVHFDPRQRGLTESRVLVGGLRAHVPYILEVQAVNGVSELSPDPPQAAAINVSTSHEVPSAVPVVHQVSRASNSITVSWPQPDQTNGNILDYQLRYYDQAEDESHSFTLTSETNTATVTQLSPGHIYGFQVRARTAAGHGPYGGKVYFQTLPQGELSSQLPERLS
How it was run: as §1

B1: 136 (antibody, V domains shown)
VH: QVQLVQSGSELKKPGASVKVSCKASGYTFTDYSMHWVRQAPGQGLKWMGWINTETGEPTYADDFKGRFVFSLDTSVSTAYLQISSLKAEDTAVYYCARIPLYYYGSRYWYFDVWGQGTTVTVSS
VL: EIVMTQSPATLSVSPGERATLSCRASENIYRNLAWYQQKPGQSPRLLIYAATNLADGIPARFSGSGSGTEYTLTISSLQSEDFAVYYCQHFWGTPWTFGQGTKVEIK
modifications: synthetic humanized antibody heavy chain variable region sequence; synthetic humanized antibody light chain variable region sequence
In the case of B1, the “hEphA1-SEAP-: absorbance at 450 nm, percentage with respect to hEphA4-SEAP-His as 100%” value (human EphA1) is reported as 5.3%, the “hEphB4-SEAP-: absorbance at 450 nm, percentage with respect to hEphA4-SEAP-His as 100%” value (human EphB4) is reported as 5.2% and the “hEphB6-SEAP-: absorbance at 450 nm, percentage with respect to hEphA4-SEAP-His as 100%” value (human EphB6) is reported as 5.5%.
